Here are results for three sequences from US5840867.

Like-named read-outs stand apart in the source and are kept apart here. Where only a bound is given, the exact number is not on record here.

For data set [1], the target named is bradykinin (peptide, thiopropyl-derivatised on Sepharose for selection) (UniProt P01042). The conditions noted are these: method not stated, cited from earlier work.
The next data set concerns the target T1, ovalbumin (UniProt P01012).
T1 sequence: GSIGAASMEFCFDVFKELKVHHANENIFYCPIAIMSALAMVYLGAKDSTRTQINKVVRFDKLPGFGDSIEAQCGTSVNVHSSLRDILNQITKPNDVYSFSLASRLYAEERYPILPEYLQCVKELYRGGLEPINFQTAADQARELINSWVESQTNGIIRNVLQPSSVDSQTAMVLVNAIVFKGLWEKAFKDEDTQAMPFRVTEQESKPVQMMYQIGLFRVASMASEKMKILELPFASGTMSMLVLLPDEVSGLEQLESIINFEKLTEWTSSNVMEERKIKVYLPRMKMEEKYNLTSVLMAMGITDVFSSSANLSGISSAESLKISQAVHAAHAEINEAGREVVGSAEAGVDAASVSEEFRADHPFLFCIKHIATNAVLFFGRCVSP
The experiment in a line: filter. The conditions noted are these: 60 pmol ovalbumin; DNA alone 0.07%.

The next data set concerns the target thrombin (Homo sapiens?) (UniProt P00734+P00734). Kind of data set: filter.

bradykinin (peptide, thiopropyl-derivatised on Sepharose for selection), sequence (P01042 whole entry, looked up, tested part not stated): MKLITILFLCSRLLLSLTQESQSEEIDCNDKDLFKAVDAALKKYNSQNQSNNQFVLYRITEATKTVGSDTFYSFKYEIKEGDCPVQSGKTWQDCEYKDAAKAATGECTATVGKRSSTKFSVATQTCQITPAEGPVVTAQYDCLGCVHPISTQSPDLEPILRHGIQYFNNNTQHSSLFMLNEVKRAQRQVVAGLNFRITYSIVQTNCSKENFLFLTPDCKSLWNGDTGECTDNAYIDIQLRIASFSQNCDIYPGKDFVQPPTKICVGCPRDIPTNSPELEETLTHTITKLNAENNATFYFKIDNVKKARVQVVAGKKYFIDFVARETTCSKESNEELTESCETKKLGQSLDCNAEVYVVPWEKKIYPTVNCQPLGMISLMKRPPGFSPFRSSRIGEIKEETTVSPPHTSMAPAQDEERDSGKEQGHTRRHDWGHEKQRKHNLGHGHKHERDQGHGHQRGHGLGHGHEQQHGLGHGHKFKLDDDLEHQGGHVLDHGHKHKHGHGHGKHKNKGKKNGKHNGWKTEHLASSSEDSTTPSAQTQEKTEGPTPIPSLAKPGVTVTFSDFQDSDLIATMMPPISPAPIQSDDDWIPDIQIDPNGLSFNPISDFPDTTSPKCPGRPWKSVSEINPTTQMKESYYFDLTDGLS

As a reminder, the Kd is the equilibrium constant for the complex coming apart. Turning to “CGTACGGTCGACGCTAGCNNNNNNNNNNNNNNNNNNNNNNNNNNNNNNNNNNNNNNNNNNNNNNNNNNNNNNNNNNNNCACGTGGAGCTCGGATCC [Round 5 bradykinin aptamer pool]”, in data set [1] (pool), the Kd was 50 µM. Turning to “CGTACGGTCGACGCTAGCNNNNNNNNNNNNNNNNNNNNNNNNNNNNNNNNNNNNNNNNNNNNNNNNNNNNNNNNNNNNCACGTGGAGCTCGGATCC [Round 5 thrombin aptamer pool (96-mer)]”, the binding signal is 0.05 % DNA bound with ovalbumin and 20.4 % DNA bound with thrombin (60 pmol thrombin, 3.5 pmol DNA in 200 uL selection buffer, RT 1 h, DNA alone 0.07%). Consider “CGTACGGTCGACGCTAGCNNNNNNNNNNNNNNNNNNNNNNNNNNNNNNNNNNNNNNNNNNNNNNNNNNNNNNNNNNNNCACGTGGAGCTCGGATCC [unselected 96-mer pool]”, for which the Kd in data set [1] (unselected DNA) is more than 1000 µM. This sequence had a binding signal with thrombin (unselected DNA, DNA alone 0.08%) of 0.06 % DNA bound.
